Values of other authors in publication PMC5662687.

Target: ICAM-1 (Homo sapiens) (UniProt P05362)
Sequence (P05362 28-480): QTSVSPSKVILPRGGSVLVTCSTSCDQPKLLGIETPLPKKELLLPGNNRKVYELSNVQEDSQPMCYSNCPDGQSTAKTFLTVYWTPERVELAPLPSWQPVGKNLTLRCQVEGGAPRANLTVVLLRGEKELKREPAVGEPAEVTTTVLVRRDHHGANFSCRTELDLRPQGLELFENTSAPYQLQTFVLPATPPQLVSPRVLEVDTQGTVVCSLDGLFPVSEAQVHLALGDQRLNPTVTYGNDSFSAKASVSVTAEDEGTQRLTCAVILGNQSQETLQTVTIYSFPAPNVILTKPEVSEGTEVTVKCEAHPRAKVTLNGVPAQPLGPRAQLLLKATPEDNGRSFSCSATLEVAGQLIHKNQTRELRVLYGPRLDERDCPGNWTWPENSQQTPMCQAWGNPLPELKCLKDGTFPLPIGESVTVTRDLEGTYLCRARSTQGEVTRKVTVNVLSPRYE

LFA-1, sequence (P20701 26-1090): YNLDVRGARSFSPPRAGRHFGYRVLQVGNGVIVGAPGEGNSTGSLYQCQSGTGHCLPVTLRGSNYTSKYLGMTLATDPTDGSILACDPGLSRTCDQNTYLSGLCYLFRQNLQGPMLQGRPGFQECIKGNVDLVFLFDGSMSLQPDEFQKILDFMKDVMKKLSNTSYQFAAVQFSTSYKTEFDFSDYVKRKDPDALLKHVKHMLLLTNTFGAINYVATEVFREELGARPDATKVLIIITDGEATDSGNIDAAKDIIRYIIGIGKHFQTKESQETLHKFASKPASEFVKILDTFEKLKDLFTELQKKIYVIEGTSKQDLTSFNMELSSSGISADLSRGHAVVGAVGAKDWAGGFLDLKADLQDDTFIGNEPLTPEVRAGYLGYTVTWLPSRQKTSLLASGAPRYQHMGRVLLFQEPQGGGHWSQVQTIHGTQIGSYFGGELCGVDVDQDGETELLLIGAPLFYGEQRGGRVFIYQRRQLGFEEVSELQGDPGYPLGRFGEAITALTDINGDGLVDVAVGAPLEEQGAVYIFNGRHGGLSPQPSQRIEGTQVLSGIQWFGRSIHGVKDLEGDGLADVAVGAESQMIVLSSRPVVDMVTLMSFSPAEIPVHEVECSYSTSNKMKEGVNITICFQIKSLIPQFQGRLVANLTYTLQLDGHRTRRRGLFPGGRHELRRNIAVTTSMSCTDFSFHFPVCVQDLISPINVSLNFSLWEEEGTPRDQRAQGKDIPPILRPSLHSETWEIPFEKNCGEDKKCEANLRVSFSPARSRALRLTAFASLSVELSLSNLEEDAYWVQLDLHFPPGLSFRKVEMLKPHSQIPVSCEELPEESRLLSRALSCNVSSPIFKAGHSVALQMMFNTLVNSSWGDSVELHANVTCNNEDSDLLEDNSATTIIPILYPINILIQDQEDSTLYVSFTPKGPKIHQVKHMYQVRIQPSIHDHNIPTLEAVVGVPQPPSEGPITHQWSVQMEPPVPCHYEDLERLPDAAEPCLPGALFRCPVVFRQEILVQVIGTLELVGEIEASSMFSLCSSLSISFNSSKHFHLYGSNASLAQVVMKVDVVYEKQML
LFA-1, sequence (P05107 23-700, further chain): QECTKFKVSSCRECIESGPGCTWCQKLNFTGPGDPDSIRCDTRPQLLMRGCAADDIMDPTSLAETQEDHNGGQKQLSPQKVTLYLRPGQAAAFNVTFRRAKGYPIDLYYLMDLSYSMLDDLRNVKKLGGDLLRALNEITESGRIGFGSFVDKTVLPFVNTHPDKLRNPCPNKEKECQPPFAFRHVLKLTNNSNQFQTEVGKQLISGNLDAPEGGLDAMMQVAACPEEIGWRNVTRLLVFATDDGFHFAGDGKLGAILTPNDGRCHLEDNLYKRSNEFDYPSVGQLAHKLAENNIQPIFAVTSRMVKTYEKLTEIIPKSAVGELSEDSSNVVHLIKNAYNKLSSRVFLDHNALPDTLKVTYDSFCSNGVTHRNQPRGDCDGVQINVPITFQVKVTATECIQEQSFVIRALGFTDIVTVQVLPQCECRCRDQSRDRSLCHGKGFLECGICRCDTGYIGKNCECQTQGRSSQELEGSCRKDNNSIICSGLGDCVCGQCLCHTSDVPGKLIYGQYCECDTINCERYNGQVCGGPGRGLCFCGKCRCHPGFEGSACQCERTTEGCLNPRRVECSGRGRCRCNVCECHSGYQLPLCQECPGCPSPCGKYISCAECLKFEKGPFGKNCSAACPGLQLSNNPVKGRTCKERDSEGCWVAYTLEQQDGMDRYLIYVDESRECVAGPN

LFA-1 (from UniProt P20701)
Kd: 1000 µM
